According to article PMC10924156, “Design, Preclinical Evaluation, and Clinical Translation of ^68Ga-FAPI-LM3, a Heterobivalent Molecule for PET Imaging of Nasopharyngeal Carcinoma” (Journal of Nuclear Medicine, 2024):
Like-named read-outs stand apart in the source and are kept apart here. Each block holds one compound with its values, some of them ahead of it. Starred links: 1 amine or outer side, 2 acyl side, 3 side chain; linkers in the order of their positions; H or OH if unused. Positions of bridges follow the written chain, without caps; N, C: chain ends. Non-standard residues stand in square brackets, D forms with d. Residues, ends and D or L forms follow the SMILES beside them. *: point of attachment. X1 = CN(CCCN1CCN(*)CC1)c1ccc2nccc(C(=O)NCC(=O)N3CC(F)(F)C[C@H]3C#N)c2c1; DOTA = O=C(O)CN1CCN(CC(=O)O)CCN(CC(=O)*)CCN(CC(=O)O)CC1; dPhe(4-NHCONH2) = NC(=O)Nc1ccc(C[C@@H](N)C(=O)O)cc1; Phe(4-Cl) = N[C@@H](Cc1ccc(Cl)cc1)C(=O)O; Suc = O=C(CCC(=O)[*:2])[*:1]; AEEEA = NCCOCCOCCOCC(=O)O

Assays:
SSTR2 [1] = target: T1, SSTR2 (Homo sapiens, UniProt P30874); test: SSTR2 receptor binding assay on HT-1080-SSTR2 cells; settings: read-out: half-maximal inhibitory concentration, SSTR2 binding
T1 construct: expressed in transfected cells
Procedure: (§1) Information on cell resources, transfection, and culture is provided in the supplemental materials. For in vitro studies, the cells were seeded in 24-well plates and cultured in a routine medium until they reached approximately 80% confluence. During the experiment, the medium was replaced with a fetal bovine serum–free medium. […] After a 60-min incubation period, the free tracer was removed using phosphate-buffered saline before measurement. The cells were lysed with 0.5 mL of 1 M NaOH, and radioactivity was subsequently gauged using a γ-counter (Wizard 2480; PerkinElmer Inc.).

human FAP = target: T2, human FAP (Homo sapiens, UniProt Q12884); test: FAP radioligand binding assay on HT-1080-FAP cells; settings: read-out: half-maximal inhibitory concentration, FAP binding
T2 construct: expressed in transfected cells
T2 sequence (Q12884 1-760): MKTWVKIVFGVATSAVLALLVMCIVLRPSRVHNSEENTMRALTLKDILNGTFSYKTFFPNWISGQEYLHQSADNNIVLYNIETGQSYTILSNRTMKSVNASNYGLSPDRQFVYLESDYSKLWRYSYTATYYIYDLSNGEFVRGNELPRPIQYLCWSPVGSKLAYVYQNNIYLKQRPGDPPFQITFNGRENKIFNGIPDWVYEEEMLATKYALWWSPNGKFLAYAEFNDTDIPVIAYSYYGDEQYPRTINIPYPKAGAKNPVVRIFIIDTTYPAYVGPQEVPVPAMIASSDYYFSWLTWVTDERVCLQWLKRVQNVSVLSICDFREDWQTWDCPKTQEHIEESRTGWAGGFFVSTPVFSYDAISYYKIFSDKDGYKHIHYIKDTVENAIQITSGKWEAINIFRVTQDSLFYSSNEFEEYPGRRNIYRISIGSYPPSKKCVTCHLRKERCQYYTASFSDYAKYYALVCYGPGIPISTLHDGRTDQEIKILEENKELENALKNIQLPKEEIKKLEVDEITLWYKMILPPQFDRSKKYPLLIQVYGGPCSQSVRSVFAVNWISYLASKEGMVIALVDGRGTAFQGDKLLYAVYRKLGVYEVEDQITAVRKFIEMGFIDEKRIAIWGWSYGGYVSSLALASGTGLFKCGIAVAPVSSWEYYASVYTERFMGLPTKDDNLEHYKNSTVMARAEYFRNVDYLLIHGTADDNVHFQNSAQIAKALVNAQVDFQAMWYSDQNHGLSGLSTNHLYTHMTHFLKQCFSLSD
Procedure: as §1

[2] = system: nasopharyngeal carcinoma lesions; settings: human, in vivo
in vitro = in vitro ADME, bovine; settings: serum
Procedure: Information regarding the reagents, chemicals, high-performance liquid chromatography, liquid chromatography–mass spectrometry, and flow diagram of the synthesis of FAPI-LM3 are provided in the supplemental materials (available at http://jnm.snmjournals.org ([16])). The radiolabeling of FAPI-46, DOTA-LM3, and FAPI-LM3 precursors with ^68Ga was performed following similar procedures. In brief, 25 nmol of the precursor in 1 mL of sodium acetate buffer (0.25 M, pH 8.2–8.3) was allowed to react with 4 mL of ^68Ga solution (1.3 GBq in 0.6 M HCl) at 100°C for 15 min. For clinical imaging, the final product was passed through a 0.22-μm Millipore filter for sterilization in each ^68Ga-FAPI-LM3 preparation process. The stability of ^68Ga-FAPI-LM3 was determined by incubating the product in phosphate-buffered saline and fetal bovine serum at 37°C and analyzing it via radio–high-performance liquid chromatography after 1 and 2 h of incubation.

[3] = system: HT-1080-FAP, HT-1080-SSTR2, HT-1080-FAP–plus–HT-1080-SSTR2, C666-1, U87MG cells; test: Cellular uptake test and blocking experiments; format: cell-based, human; settings: 60 min, with 10 nmol unlabeled FAPI-46, DOTA-LM3 or both; all P < 0.05
Procedure: as §1

[4] = system: HT-1080-FAP–plus–HT-1080-SSTR2 xenografts; settings: mouse
Procedure: (§2) Tumor-bearing mice (3/group) were intravenously injected with approximately 7.4 MBq of ^68Ga-FAPI-LM3, ^68Ga-FAPI-46, or ^68Ga-DOTA-LM3. Subsequent static PET scans were obtained at intervals of 0.5, 1, 2, and 4 h after injection using an Inveon small-animal PET scanner (Siemens). In the blocking experiment, approximately 60 nmol of the unlabeled precursor (FAPI-46, DOTA-LM3, or FAPI-46 plus DOTA-LM3) were simultaneously injected with ^68Ga-FAPI-LM3. The PET images were reconstructed iteratively using 3-dimensional OpMAP 256 (PET reconstruction protocol [.pPetRcn]; Siemens Healthineers AG) and converted to percentage injected dose per gram of tissue (%ID/g) by delineating the regions of interest. For the biodistribution studies, approximately 1.48 MBq of ^68Ga-FAPI-LM3, ^68Ga-FAPI-46, ^68Ga-DOTA-LM3, or ^68Ga-FAPI-LM3 with unlabeled precursor were injected into tumor-bearing mice (3/group), and different groups of mice were euthanized at the scheduled time points after injection.

in vivo [5] = settings: BALB/c nude, mouse, iv, 7.4 MBq, total radioactivity, tumor uptake (PET)
Procedure: as §2

[6] = system: HT-1080-FAP–plus–HT-1080-SSTR2 tumor xenograft; test: Small-animal PET imaging; settings: 1 h after injection
Procedure: as §2

[7] = human, in vivo
in vivo [8] = settings: BALB/c nude, mouse, 1.48 MBq, total radioactivity
Procedure: as §2

clinical = settings: human, in vivo, total radioactivity; for SUV: Median SUVmax; for SUV at 1 h: SUVmax
SSTR2 [9] = settings: cited from earlier work
Description: Within the domain of nuclear medicine, several targets, such as somatostatin receptor 2 (SSTR2), prostate-specific membrane antigen, and FAP, have emerged as prominent subjects of research ([7],[8]). Epstein–Barr virus latent membrane protein 1 can upregulate SSTR2 expression via the NF-κB pathway ([9]). Both FAP and SSTR2 are important markers in the biology of NPC, as evidenced by the plethora of such PET radiopharmaceuticals, including ^68Ga-FAPI for imaging cancer-associated fibroblasts and ^68Ga-DOTATATE for imaging SSTR2 ([10],[11]).

T1 sequence (P30874 whole entry): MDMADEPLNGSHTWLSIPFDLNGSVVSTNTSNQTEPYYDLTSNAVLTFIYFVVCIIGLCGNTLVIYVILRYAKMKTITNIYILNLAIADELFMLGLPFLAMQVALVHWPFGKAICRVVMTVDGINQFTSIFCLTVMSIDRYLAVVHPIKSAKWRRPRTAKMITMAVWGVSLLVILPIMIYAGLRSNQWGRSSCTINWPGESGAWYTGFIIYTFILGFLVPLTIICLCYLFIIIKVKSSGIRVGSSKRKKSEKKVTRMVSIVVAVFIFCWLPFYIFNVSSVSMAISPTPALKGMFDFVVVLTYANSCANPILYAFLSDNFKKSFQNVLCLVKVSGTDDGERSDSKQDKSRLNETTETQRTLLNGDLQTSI

IC50 (SSTR2 [1]): 1.3 nM
Compound: C[C@@H](O)[C@@H]1NC(=O)[C@H](CCCCN)NC(=O)[C@@H](Cc2ccc(NC(N)=O)cc2)NC(=O)[C@H](Cc2ccc(O)cc2)NC(=O)[C@H](NC(=O)[C@H](Cc2ccc(Cl)cc2)NC(=O)CN2CCN(CC(=O)O)CCN(CC(=O)O)CCN(CC(=O)O)CC2)CSSC[C@@H](C(=O)N[C@H](Cc2ccc(O)cc2)C(N)=O)NC1=O [DOTA-LM3, reference compound] ({DOTA}-[Phe(4-Cl)][dC]Y[dPhe(4-NHCONH2)]KTC[dY]-NH2; disulfide 2-7)

IC50 (human FAP; HT-1080-FAP cells, radioligand 68Ga-FAPI-46, 60 min incubation, 8.16 × 10^−5 to 10^−13 M, n = 3): 4.39 nM
Compound: CN(CCCN1CCN(C(=O)CN2CCN(CC(=O)O)CCN(CC(=O)O)CCN(CC(=O)O)CC2)CC1)c1ccc2nccc(C(=O)NCC(=O)N3CC(F)(F)C[C@H]3C#N)c2c1 [FAPI-46, reference compound]

IC50 (SSTR2 [1]): 13.2 nM
IC50 (human FAP): 11.7 nM
Compound: C[C@@H](O)[C@@H]1NC(=O)[C@H](CCCCN)NC(=O)[C@@H](Cc2ccc(NC(N)=O)cc2)NC(=O)[C@H](Cc2ccc(O)cc2)NC(=O)[C@H](NC(=O)[C@H](Cc2ccc(Cl)cc2)NC(=O)[C@H](CCCCNC(=O)CN2CCN(CC(=O)O)CCN(CC(=O)O)CCN(CC(=O)O)CC2)NC(=O)CCC(=O)NCCOCCOCCOCC(=O)N2CCN(CCCN(C)c3ccc4nccc(C(=O)NCC(=O)N5CC(F)(F)C[C@H]5C#N)c4c3)CC2)CSSC[C@@H](C(=O)N[C@H](Cc2ccc(O)cc2)C(N)=O)NC1=O [FAPI-LM3] ({X1-AEEEA-Suc}-K(DOTA)[Phe(4-Cl)][dC]Y[dPhe(4-NHCONH2)]KTC[dY]-NH2; disulfide 3-8)

Compound: OC[C@H]1OC(O)[C@H]([18F])[C@@H](O)[C@@H]1O (stereo partly shown) [^18F-FDG]
Median SUVmax, Distant LN mets [2]: 8.2 (2.0–9.0)
Median SUVmax, Peritoneal mets [2]: 3.4 (1.5–8.6)
Median SUVmax, Pleural mets [2]: 7.2 (3.7–12.0)

Compound: C[C@@H](O)[C@@H]1NC(=O)[C@H](CCCCN)NC(=O)[C@@H](Cc2ccc(NC(N)=O)cc2)NC(=O)[C@H](Cc2ccc(O)cc2)NC(=O)[C@H](NC(=O)[C@H](Cc2ccc(Cl)cc2)NC(=O)[C@H](CCCCNC(=O)CN2CCN(CC(=O)O)CCN(CC(=O)O)CCN(CC(=O)O)CC2)NC(=O)CCC(=O)NCCOCCOCCOCC(=O)N2CCN(CCCN(C)c3ccc4nccc(C(=O)NCC(=O)N5CC(F)(F)C[C@H]5C#N)c4c3)CC2)CSSC[C@@H](C(=O)N[C@H](Cc2ccc(O)cc2)C(N)=O)NC1=O [^68Ga-FAPI-LM3, metal not drawn] ({X1-AEEEA-Suc}-K(DOTA)[Phe(4-Cl)][dC]Y[dPhe(4-NHCONH2)]KTC[dY]-NH2; disulfide 3-8)
remaining at 2 h (in vitro): > 99%
binding to FAP or SSTR2 with corresponding unlabeled agent [3]: significantly blocked
physiologic uptake in normal organs [2]: intense physiologic uptake
uptake in blood (ex vivo biodistribution) [4]: high
tissue uptake at 0.5 h (in vivo [5]): 14 ± 0.47 %ID/g
tissue uptake at 1 h (in vivo [5]): 14.4 ± 0.67 %ID/g
tissue uptake at 2 h (in vivo [5]): 14.4 ± 0.68 %ID/g
tissue uptake at 4 h (in vivo [5]): 13.8 ± 0.68 %ID/g
blockade of tumor uptake ([6]; unlabeled DOTA-LM3): 62%
blockade of tumor uptake ([6]; unlabeled FAPI-46): 63%
blockade of tumor uptake ([6]; unlabeled FAPI-46 plus DOTA-LM3): 93%
Effective dose equivalent, Mean [7]: 1.20E–03 mSv/MBq
dosimetry, Adrenal glands, Mean [7]: 5.98E–05 mSv/MBq
dosimetry, Brain, Mean [7]: 1.63E–06 mSv/MBq
dosimetry, Breasts, Mean [7]: 3.47E–05 mSv/MBq
dosimetry, Kidneys, Mean [7]: 1.08E–04 mSv/MBq
dosimetry, LLI wall (lower large intestine), Mean [7]: 4.34E–04 mSv/MBq
dosimetry, Liver, Mean [7]: 1.28E–03 mSv/MBq
dosimetry, Lungs, Mean [7]: 7.68E–04 mSv/MBq
dosimetry, Muscle, Mean [7]: 1.57E–05 mSv/MBq
dosimetry, Osteogenic cells, Mean [7]: 4.22E–05 mSv/MBq
dosimetry, Ovaries, Mean [7]: 3.66E–04 mSv/MBq
dosimetry, Pancreas, Mean [7]: 1.23E–04 mSv/MBq
dosimetry, Red marrow, Mean [7]: 7.62E–04 mSv/MBq
dosimetry, Skin, Mean [7]: 6.29E–06 mSv/MBq
dosimetry, Small intestine, Mean [7]: 2.71E–05 mSv/MBq
dosimetry, Spleen, Mean [7]: 1.23E–04 mSv/MBq
dosimetry, Stomach wall, Mean [7]: 4.04E–04 mSv/MBq
dosimetry, Thyroid, Mean [7]: 3.68E–06 mSv/MBq
dosimetry, ULI wall (upper large intestine), Mean [7]: 1.53E–05 mSv/MBq
dosimetry, Urinary bladder wall, Mean [7]: 2.14E–03 mSv/MBq
dosimetry, Uterus, Mean [7]: 2.19E–04 mSv/MBq
tissue uptake at 1 h (in vivo [8]): 14.8 ± 0.76 %ID/g
tissue uptake at 4 h (in vivo [8]): 17.7 ± 2.46 %ID/g
SUV (clinical; Bone mets): 11.2 SUV
SUV (clinical; Distant LN mets): 16.9 SUV
SUV (clinical; Liver mets): 16.5 SUV
SUV (clinical; Peritoneal mets): 13.1 SUV
SUV (clinical; Pleural mets): 17.3 SUV
SUV (clinical; Primary): 13.8 SUV
SUV (clinical; Regional LN mets): 11.4 SUV
SUV (clinical; Total distant metastases): 14.6 SUV
SUV at 1 h (clinical; bone metastases): 10.4 SUV
SUV at 1 h (clinical; distant lymph node metastases): 14.5 SUV
SUV at 1 h (clinical; liver metastases): 14.3 SUV
SUV at 1 h (clinical; regional lymph node metastases): 10.1 SUV

Compound: p-Cl-Phe-cyclo(D-Cys-Tyr-D-4-amino-Phe(carbamoyl)-Lys-Thr-Cys)D-Tyr-NH2 (disulfide) [LM3, SSTR2 antagonist peptide]
binding affinity to SSTR2 (SSTR2 [9]): high
internalization rate (SSTR2 [9]): low
